Data: patent US20230220589A1
Each block holds one binder with its values, some of them ahead of it.

Columns and labels:
[1] = target: M44-modified M NTAA target peptides; test: encoding assay; P2 Y
[2] = target: M44-modified T NTAA target peptides; test: encoding assay; P2 Y
[3] = target: M44-modified P NTAA target peptides; test: encoding assay; P2 Y;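 also: fraction of recording tags encoded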
[4] = target: M44-modified E NTAA target peptides; test: encoding assay; P2 Y;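 also: fraction of recording tags encoded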
[5] = target: M44-modified G NTAA target peptides (M44-G-P2-peptide); test: encoding assay; P2 Y;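 also: fraction of recording tags encoded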
[6] = target: M44-modified I NTAA target peptides (M44-I-P2-peptide); test: encoding assay; P2 Y
[7] = target: M44-modified L NTAA target peptides (M44-L-P2-peptide); test: encoding assay; P2 Y;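 also: fraction of recording tags encoded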
[8] = target: M44-modified N NTAA target peptides; test: encoding assay; P2 Y
[9] = target: M44-modified Y NTAA target peptides (M44-Y-P2-peptide); test: encoding assay; P2 Y;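 also: fraction of recording tags encoded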
[10] = target: M44-modified T NTAA target peptides; test: encoding assay; P2 H
[11] = target: M44-modified W NTAA target peptides; test: encoding assay; P2 H;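 also: fraction of recording tags encoded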
[12] = target: M44-modified M NTAA target peptides; test: encoding assay; P2 W
[13] = target: M44-modified T NTAA target peptides; test: encoding assay; P2 W
[14] = target: M44-modified P NTAA target peptides; test: encoding assay; P2 W;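 also: fraction of recording tags encoded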
[15] = target: M44-modified S NTAA target peptides; test: encoding assay; P2 W
[16] = target: M44-modified G NTAA target peptides (M44-G-P2-peptide); test: encoding assay; P2 W;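 also: fraction of recording tags encoded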
[17] = target: M44-modified A NTAA target peptides (M44-A-P2-peptide); test: encoding assay; P2 W
[18] = target: M44-modified I NTAA target peptides (M44-I-P2-peptide); test: encoding assay; P2 W
[19] = target: M44-modified L NTAA target peptides (M44-L-P2-peptide); test: encoding assay; P2 W;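 also: fraction of recording tags encoded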
[20] = target: M44-modified W NTAA target peptides; test: encoding assay; P2 W;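 also: fraction of recording tags encoded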
[21] = target: M44-modified N NTAA target peptides; test: encoding assay; P2 W
[22] = target: M44-modified F NTAA target peptides (M44-F-P2-peptide); test: encoding assay; P2 W;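 also: fraction of recording tags encoded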
[23] = target: M44-modified Q NTAA target peptides; test: encoding assay; P2 W
[24] = target: M44-modified V NTAA target peptides; test: encoding assay; P2 W;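 also: fraction of recording tags encoded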
[25] = target: M44-modified Y NTAA target peptides (M44-Y-P2-peptide); test: encoding assay; P2 W;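 also: fraction of recording tags encoded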
[26] = target: M44-modified D NTAA target peptides; test: encoding assay; P2 W;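 also: fraction of recording tags encoded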
[27] = target: M44-modified H NTAA target peptides; test: encoding assay; P2 W
[28] = target: M44-modified M NTAA target peptides; test: encoding assay; P2 S
[29] = target: M44-modified T NTAA target peptides; test: encoding assay; P2 S
[30] = target: M44-modified P NTAA target peptides; test: encoding assay; P2 S;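 also: fraction of recording tags encoded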
[31] = target: M44-modified G NTAA target peptides (M44-G-P2-peptide); test: encoding assay; P2 S;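 also: fraction of recording tags encoded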
[32] = target: M44-modified A NTAA target peptides (M44-A-P2-peptide); test: encoding assay; P2 S
[33] = target: M44-modified I NTAA target peptides (M44-I-P2-peptide); test: encoding assay; P2 S
[34] = target: M44-modified L NTAA target peptides (M44-L-P2-peptide); test: encoding assay; P2 S;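 also: fraction of recording tags encoded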
[35] = target: M44-modified F NTAA target peptides (M44-F-P2-peptide); test: encoding assay; P2 S;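 also: fraction of recording tags encoded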
[36] = target: M44-modified Q NTAA target peptides; test: encoding assay; P2 S
[37] = target: M44-modified V NTAA target peptides; test: encoding assay; P2 S;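 also: fraction of recording tags encoded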
[38] = target: M44-modified Y NTAA target peptides (M44-Y-P2-peptide); test: encoding assay; P2 S;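 also: fraction of recording tags encoded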
[39] = target: M44-modified H NTAA target peptides; test: encoding assay; P2 S
[40] = target: M44-modified M NTAA target peptides; test: encoding assay; P2 Q
[41] = target: M44-modified S NTAA target peptides; test: encoding assay; P2 Q
[42] = target: M44-modified E NTAA target peptides; test: encoding assay; P2 Q;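 also: fraction of recording tags encoded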
[43] = target: M44-modified A NTAA target peptides (M44-A-P2-peptide); test: encoding assay; P2 Q
[44] = target: M44-modified I NTAA target peptides (M44-I-P2-peptide); test: encoding assay; P2 Q
[45] = target: M44-modified L NTAA target peptides (M44-L-P2-peptide); test: encoding assay; P2 Q;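 also: fraction of recording tags encoded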
[46] = target: M44-modified N NTAA target peptides; test: encoding assay; P2 Q
[47] = target: M44-modified F NTAA target peptides (M44-F-P2-peptide); test: encoding assay; P2 Q;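 also: fraction of recording tags encoded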
[48] = target: M44-modified Q NTAA target peptides; test: encoding assay; P2 Q
[49] = target: M44-modified V NTAA target peptides; test: encoding assay; P2 Q;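 also: fraction of recording tags encoded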
[50] = target: M44-modified D NTAA target peptides; test: encoding assay; P2 Q;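 also: fraction of recording tags encoded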
[51] = target: M44-modified H NTAA target peptides; test: encoding assay; P2 Q

- encoding yield [1]: 0.14
- encoding yield [2]: 0.05
- encoding yield [3]: 0.03
- encoding yield [4]: 0.03
- encoding yield [5]: 0.04
- encoding yield [6]: 0.16
- encoding yield [7]: 0.42
- encoding yield [8]: 0.02
- encoding yield [9]: 0.06
- encoding yield [10]: 0.02
- encoding yield [11]: 0.03
- encoding yield [12]: 0.05
- encoding yield [13]: 0.03
- encoding yield [14]: 0.02
- encoding yield [15]: 0.07
- encoding yield [16]: 0.01
- encoding yield [17]: 0.05
- encoding yield [18]: 0.25
- encoding yield [19]: 0.17
- encoding yield [20]: 0.17
- encoding yield [21]: 0.04
- encoding yield [22]: 0.27
- encoding yield [23]: 0.03
- encoding yield [24]: 0.08
- encoding yield [25]: 0.11
- encoding yield [26]: 0.04
- encoding yield [27]: 0.04
- encoding yield [28]: 0.07
- encoding yield [29]: 0.03
- encoding yield [30]: 0.01
- encoding yield [31]: 0.04
- encoding yield [32]: 0.02
- encoding yield [33]: 0.07
- encoding yield [34]: 0.15
- encoding yield [35]: 0.06
- encoding yield [36]: 0.02
- encoding yield [37]: 0.03
- encoding yield [38]: 0.07
- encoding yield [39]: 0.03
- encoding yield [40]: 0.01
- encoding yield [41]: 0.04
- encoding yield [42]: 0.02
- encoding yield [43]: 0.04
- encoding yield [44]: 0.03
- encoding yield [45]: 0.12
- encoding yield [46]: 0.02
- encoding yield [47]: 0.04
- encoding yield [48]: 0.01
- encoding yield [49]: 0.03
- encoding yield [50]: 0.01
- encoding yield [51]: 0.04
B1: engineered M44-L binder (SEQ ID NO: 31) (designed binder, not shown: small tags and cut ends; large carriers)
chain: QDSTQNLIPAPPLISVPLQPGFWTERFQGRWFLVGFAGNAVQKERQSRLTMQSLILELQEDNSYNITAINVRGQGCRYIISTLVPSSRPGQFTLGNIHSYPQIQSLDVQVADTDYDQFAMVFLQGTSENKQYFEVALAGRTKGLSDELKERFVSFAKSLGLKDNNIVFSVPTDQCIDN

- encoding yield [1]: 0.06
- encoding yield [2]: 0.1
- encoding yield [3]: 0.03
- encoding yield [4]: 0.02
- encoding yield [5]: 0.08
- encoding yield [6]: 0.11
- encoding yield [7]: 0.1
- encoding yield [8]: 0.03
- encoding yield [9]: 0.04
- encoding yield [10]: 0.04
- encoding yield [11]: 0.03
- encoding yield [12]: 0.03
- encoding yield [13]: 0.13
- encoding yield [14]: 0.04
- encoding yield [15]: 0.13
- encoding yield [16]: 0.02
- encoding yield [17]: 0.28
- encoding yield [18]: 0.21
- encoding yield [19]: 0.07
- encoding yield [20]: 0.05
- encoding yield [21]: 0.05
- encoding yield [22]: 0.18
- encoding yield [23]: 0.03
- encoding yield [24]: 0.22
- encoding yield [25]: 0.06
- encoding yield [26]: 0.02
- encoding yield [27]: 0.04
- encoding yield [28]: 0.05
- encoding yield [29]: 0.06
- encoding yield [30]: 0.01
- encoding yield [31]: 0.05
- encoding yield [32]: 0.1
- encoding yield [33]: 0.03
- encoding yield [34]: 0.05
- encoding yield [35]: 0.03
- encoding yield [36]: 0.03
- encoding yield [37]: 0.03
- encoding yield [38]: 0.06
- encoding yield [39]: 0.01
- encoding yield [40]: 0.01
- encoding yield [41]: 0.05
- encoding yield [42]: 0.04
- encoding yield [43]: 0.22
- encoding yield [44]: 0.02
- encoding yield [45]: 0.04
- encoding yield [46]: 0.05
- encoding yield [47]: 0.03
- encoding yield [48]: 0.02
- encoding yield [49]: 0.06
- encoding yield [50]: 0.03
- encoding yield [51]: 0.04
B2: engineered M44-A binder (SEQ ID NO: 42) (designed binder, not shown: small tags and cut ends; large carriers)
chain: QVSVQPNFQQDKFLGRWFVAGLASNSSWDREKVAALSGAKMVVAPATDGGLNVTRTMLRKNQCETYTGLLQPAGSLGSYSWRSPHPGSTGSESVVETDYDQYALVYGQGSKGPGEDLRAAALWSRTQTPRAELKEKFTAFSKAQGFTEDTIVFLPQTDKCMTEQ

- encoding yield [1]: 0.04
- encoding yield [2]: 0.01
- encoding yield [3]: 0.02
- encoding yield [4]: 0.01
- encoding yield [5]: 0.01
- encoding yield [6]: 0.07
- encoding yield [7]: 0.08
- encoding yield [8]: 0.01
- encoding yield [9]: 0.02
- encoding yield [10]: 0.01
- encoding yield [11]: 0.01
- encoding yield [12]: 0.01
- encoding yield [13]: 0.01
- encoding yield [14]: 0.01
- encoding yield [15]: 0.02
- encoding yield [16]: 0.01
- encoding yield [17]: 0.01
- encoding yield [18]: 0.14
- encoding yield [19]: 0.03
- encoding yield [20]: 0.03
- encoding yield [21]: 0.01
- encoding yield [22]: 0.09
- encoding yield [23]: 0.01
- encoding yield [24]: 0.03
- encoding yield [25]: 0.02
- encoding yield [26]: 0.01
- encoding yield [27]: 0.01
- encoding yield [28]: 0.07
- encoding yield [29]: 0.01
- encoding yield [30]: 0.01
- encoding yield [31]: 0.01
- encoding yield [32]: 0.01
- encoding yield [33]: 0.18
- encoding yield [34]: 0.27
- encoding yield [35]: 0.07
- encoding yield [36]: 0.01
- encoding yield [37]: 0.04
- encoding yield [38]: 0.04
- encoding yield [39]: 0.01
- encoding yield [40]: 0
- encoding yield [41]: 0.01
- encoding yield [42]: 0.01
- encoding yield [43]: 0.02
- encoding yield [44]: 0
- encoding yield [45]: 0.02
- encoding yield [46]: 0.01
- encoding yield [47]: 0.01
- encoding yield [48]: 0.01
- encoding yield [49]: 0.01
- encoding yield [50]: 0.01
- encoding yield [51]: 0.01
B3: engineered M44-L binder (SEQ ID NO: 21) (designed binder, not shown: small tags and cut ends; large carriers)
chain: QVSVQPNFQQDKFLGRWFYAGHASNSSWYREKVAALSMAKLVVAPATDGGLNATETFLRKNQCETITSLLQPAGSLGSYSSRSPHGGSTWSTSVVETDYDQYALLYLQGSKGPGEDFRGAILASRTQTPRAELKEKFTAFSKAQGFTEDTIVFLPQTDKCMTEQ
